Experimental data: the supplement of paper PMC7125110
± gives the standard error. Variants at the floor of the assay were thinned out.

B1: glmS ribozyme (parent)
chain: AUAAAAGCGCCAGAACUACAGAAAUGUAGUUGACGAGGAGGAGGUUUAUCGAAUUUUCGGCGGAUGCCUCCAAA

Variants of: B1
Test: self-cleavage kobs at 2500 uM GlcN6P; higher = faster cleavage; RNA array
Settings: with glucosamine-6-phosphate
How it was run: (§1)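 Weighted Michaelis–Menten fits across concentrations supplied kcat and KM, based on kobs from one- or two-exponential decay fits to normalised per-tile medians. The data came from barcoded ribozyme variants transcribed in situ by E. coli RNA polymerase on sequenced MiSeq chips and tracked at 37 °C by a hybridised Cy3 probe. Glucosamine-6-phosphate (40 μM to 10 mM) in HEPES/KCl/Mg(OAc)2 buffer was flowed in.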

U31A G35C A39U C67A C70U and A6G G43C C58G cannot be ordered by “self-cleavage kobs at 2500 uM GlcN6P” value: < 1e-05 s⁻¹ for the first, < 1e-05 s⁻¹ for the second.

Compared with A15C U49G C58G, C34A G38U C50G is higher in “self-cleavage kobs at 2500 uM GlcN6P” value: < 1e-05 s⁻¹ for the first, 9.01e-05 ± 3e-05 s⁻¹ for the second.

A6G U30C C34U and A12U A48U C58U cannot be ordered by “self-cleavage kobs at 2500 uM GlcN6P” value: < 1e-05 s⁻¹ for the first, < 1e-05 s⁻¹ for the second.

A39C G43U A48U G51U and G9A G51U U56G G63C cannot be ordered by “self-cleavage kobs at 2500 uM GlcN6P” value: < 1e-05 s⁻¹ for the first, < 1e-05 s⁻¹ for the second.

Going from U47G C68A C71G to G7A A12U U31G C70A, the “self-cleavage kobs at 2500 uM GlcN6P” value falls from 0.00013 ± 3.6e-05 s⁻¹ to < 1e-05 s⁻¹.

A14C U56C C67U and U31C A64C U65G cannot be ordered by “self-cleavage kobs at 2500 uM GlcN6P” value: < 1e-05 s⁻¹ for the first, < 1e-05 s⁻¹ for the second.

G9A C10U U31C G44A and G7U A12C C16U G60A cannot be ordered by “self-cleavage kobs at 2500 uM GlcN6P” value: < 1e-05 s⁻¹ for the first, < 1e-05 s⁻¹ for the second.

C10U G35U G43C and A36G A52U A64G cannot be ordered by “self-cleavage kobs at 2500 uM GlcN6P” value: < 1e-05 s⁻¹ for the first, < 1e-05 s⁻¹ for the second.

A12C A14G U69G and A36G C50G C67G are within error of each other in “self-cleavage kobs at 2500 uM GlcN6P” value: 0.000112 ± 3.2e-05 s⁻¹ for the first, 0.000124 ± 5.6e-05 s⁻¹ for the second.

G35A U56A C68G and G29C A42U U47A cannot be ordered by “self-cleavage kobs at 2500 uM GlcN6P” value: < 1e-05 s⁻¹ for the first, < 1e-05 s⁻¹ for the second.

A36C A39U G40C A42G U46C U69G and A12G A36C C70U cannot be ordered by “self-cleavage kobs at 2500 uM GlcN6P” value: < 1e-05 s⁻¹ for the first, < 1e-05 s⁻¹ for the second.

U45C A48U U65A and U30C U55C U56G U69C cannot be ordered by “self-cleavage kobs at 2500 uM GlcN6P” value: < 1e-05 s⁻¹ for the first, < 1e-05 s⁻¹ for the second.

A12G A14G G32U A33U G51C and G29U C50U C61U cannot be ordered by “self-cleavage kobs at 2500 uM GlcN6P” value: < 1e-05 s⁻¹ for the first, < 1e-05 s⁻¹ for the second.

Going from A39G U55C A64G to G37C U47C C58A, the “self-cleavage kobs at 2500 uM GlcN6P” value falls from 0.00694 ± 0.0013 s⁻¹ to < 1e-05 s⁻¹.

A6U G9A C61A and A14U G35C U65G G66U U69G cannot be ordered by “self-cleavage kobs at 2500 uM GlcN6P” value: < 1e-05 s⁻¹ for the first, < 1e-05 s⁻¹ for the second.

G13C G44C A53U and C8A A33C U45C G59A cannot be ordered by “self-cleavage kobs at 2500 uM GlcN6P” value: < 1e-05 s⁻¹ for the first, < 1e-05 s⁻¹ for the second.

Compared with G29C U31A, C10G G37C U49G C68G U69G is 5.4-fold lower in “self-cleavage kobs at 2500 uM GlcN6P” value: 0.000502 ± 0.0001 s⁻¹ for the first, 9.24e-05 ± 4.5e-05 s⁻¹ for the second.

Compared with A15C A42G C67U, A39C G41C G66U is lower in “self-cleavage kobs at 2500 uM GlcN6P” value: 0.000389 ± 9.9e-05 s⁻¹ for the first, < 1e-05 s⁻¹ for the second.

Going from A48C C61U G66A to A12G U56G G66A, the “self-cleavage kobs at 2500 uM GlcN6P” value rises from < 1e-05 s⁻¹ to 0.000134 ± 2.5e-05 s⁻¹.

C10U A36C G40U G59U C67G and C8G A14G G32U A64U cannot be ordered by “self-cleavage kobs at 2500 uM GlcN6P” value: < 1e-05 s⁻¹ for the first, < 1e-05 s⁻¹ for the second.

Going from C11U A15G G37C U47C U69G to G38C G43C U56G C67A U69A, the “self-cleavage kobs at 2500 uM GlcN6P” value falls from 0.000136 ± 5.1e-05 s⁻¹ to < 1e-05 s⁻¹.

Compared with A52U G59U A64U C70U, G26U G41C is higher in “self-cleavage kobs at 2500 uM GlcN6P” value: < 1e-05 s⁻¹ for the first, 0.000123 ± 3.4e-05 s⁻¹ for the second.

First: C10U C11U G13C A42U U54A
Second: U30G U49G U54A
The “self-cleavage kobs at 2500 uM GlcN6P” value of the first is lower: < 1e-05 s⁻¹ for the first, 4.83e-05 ± 2.3e-05 s⁻¹ for the second.

Going from G29U U47G U54G to G7U G43A U47G U56G, the “self-cleavage kobs at 2500 uM GlcN6P” value falls from 0.000533 ± 0.00012 s⁻¹ to < 1e-05 s⁻¹.

A6G A36C U54G G62U and C10A C11A G51U A52U cannot be ordered by “self-cleavage kobs at 2500 uM GlcN6P” value: < 1e-05 s⁻¹ for the first, < 1e-05 s⁻¹ for the second.

Going from A12G C16U G29A G40A A42U U45G to C8G G9C G41A G60C C61A C68G, the “self-cleavage kobs at 2500 uM GlcN6P” value falls from 8.49e-05 ± 2.3e-05 s⁻¹ to < 1e-05 s⁻¹.

C16U G41A C67U and A33C G35A U56A cannot be ordered by “self-cleavage kobs at 2500 uM GlcN6P” value: < 1e-05 s⁻¹ for the first, < 1e-05 s⁻¹ for the second.

G7A C8G G9C A15C U47G C71A and A12U A15U C50A G51A G59C cannot be ordered by “self-cleavage kobs at 2500 uM GlcN6P” value: < 1e-05 s⁻¹ for the first, < 1e-05 s⁻¹ for the second.

A14U A33G G40U U56A and A14U G32U G44C G62U C71A cannot be ordered by “self-cleavage kobs at 2500 uM GlcN6P” value: < 1e-05 s⁻¹ for the first, < 1e-05 s⁻¹ for the second.

G13C U31G A36G U46A C70G and C11U A15U G41C cannot be ordered by “self-cleavage kobs at 2500 uM GlcN6P” value: < 1e-05 s⁻¹ for the first, < 1e-05 s⁻¹ for the second.

First: A12U C16G U30C
Second: C10U A33G A39G G41C C67U
The “self-cleavage kobs at 2500 uM GlcN6P” value of the first is higher: 0.000813 ± 0.00031 s⁻¹ for the first, < 1e-05 s⁻¹ for the second.

C10G G41C G51A C61G and G51U G59C G66U cannot be ordered by “self-cleavage kobs at 2500 uM GlcN6P” value: < 1e-05 s⁻¹ for the first, < 1e-05 s⁻¹ for the second.

C10U A12C G66A and A6C A15G U30C are within error of each other in “self-cleavage kobs at 2500 uM GlcN6P” value: 3.37e-05 ± 1.5e-05 s⁻¹ for the first, 2.76e-05 ± 1.3e-05 s⁻¹ for the second.

A39C U57A C67G and G7A C11U U45C cannot be ordered by “self-cleavage kobs at 2500 uM GlcN6P” value: < 1e-05 s⁻¹ for the first, < 1e-05 s⁻¹ for the second.

Compared with G29U G32C U56A, A6G A12U C67U is 13-fold higher in “self-cleavage kobs at 2500 uM GlcN6P” value: 7.28e-05 ± 1.4e-05 s⁻¹ for the first, 0.000919 ± 0.00023 s⁻¹ for the second.

Going from A12U U31C U57G to U46C G60U C70U, the “self-cleavage kobs at 2500 uM GlcN6P” value falls from 5.17e-05 ± 1.8e-05 s⁻¹ to < 1e-05 s⁻¹.

Compared with A14U C16U U47G C58U G60A U69G, G13A G44U U45A U57A U69C is lower in “self-cleavage kobs at 2500 uM GlcN6P” value: 0.000102 ± 2.6e-05 s⁻¹ for the first, < 1e-05 s⁻¹ for the second.

A33G A52G G62A and A14C U31C A36G G38C G41U G51U cannot be ordered by “self-cleavage kobs at 2500 uM GlcN6P” value: < 1e-05 s⁻¹ for the first, < 1e-05 s⁻¹ for the second.

C11A G32A G43C U46A C50A G60A and C8A C16G G38A A64G C68A cannot be ordered by “self-cleavage kobs at 2500 uM GlcN6P” value: < 1e-05 s⁻¹ for the first, < 1e-05 s⁻¹ for the second.

Going from G29C G63C to G32U U56G G66U, the “self-cleavage kobs at 2500 uM GlcN6P” value rises from < 1e-05 s⁻¹ to 6.54e-05 ± 1.6e-05 s⁻¹.

A12G A64U C67G was tested, and the “self-cleavage kobs at 2500 uM GlcN6P” value was < 1e-05 s⁻¹.

Variants of: B1
Test: self-cleavage kobs at 10000 uM GlcN6P; higher = faster cleavage; RNA array
Settings: with glucosamine-6-phosphate
How it was run: as §1

Going from U45C A48U U65A to G29C U31A, the “self-cleavage kobs at 10000 uM GlcN6P” value rises from < 1e-05 s⁻¹ to 0.000731 ± 0.00017 s⁻¹.

Going from C10U A36C G40U G59U C67G to A12G C16U G29A G40A A42U U45G, the “self-cleavage kobs at 10000 uM GlcN6P” value rises from < 1e-05 s⁻¹ to 8.82e-05 ± 1.6e-05 s⁻¹.

C10U A33G A39G G41C C67U and G51U G59C G66U cannot be ordered by “self-cleavage kobs at 10000 uM GlcN6P” value: < 1e-05 s⁻¹ for the first, < 1e-05 s⁻¹ for the second.

In the case of A12G A64U C67G, the “self-cleavage kobs at 10000 uM GlcN6P” value is reported as < 1e-05 s⁻¹.
